One block for each binder: values may come before it.
How the values were obtained:
human CXCR2 [1] = target: T1, human CXCR2 (human, UniProt P25025 1-360); test: FACS, CXCR2 CHO Flp-In cells, IgG1
T1 construct: Expressed on Flp-In CHO cells (FACS, Fab-ZAP, ADCC, CDC) or on bought PathHunter CHO cells (beta-arrestin assay); the construct in the PathHunter cells is not described; also called chemokine receptor CXCR2; CXCR2 CHO Flp-In cells
T1 sequence: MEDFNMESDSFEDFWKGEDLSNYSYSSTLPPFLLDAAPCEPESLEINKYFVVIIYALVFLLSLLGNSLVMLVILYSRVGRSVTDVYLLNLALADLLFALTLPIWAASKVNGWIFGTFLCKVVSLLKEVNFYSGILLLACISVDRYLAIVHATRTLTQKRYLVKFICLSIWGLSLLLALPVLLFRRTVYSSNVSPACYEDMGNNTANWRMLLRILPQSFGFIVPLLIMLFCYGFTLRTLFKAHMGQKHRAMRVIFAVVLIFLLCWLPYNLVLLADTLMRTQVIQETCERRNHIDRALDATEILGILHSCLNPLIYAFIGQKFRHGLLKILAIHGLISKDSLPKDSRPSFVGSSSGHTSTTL
Experimental: (§1) Human CXCR2-expressing Flp-In™ CHO cells were harvested at ˜80% confluence washed once with PBS (Gibco, Cat #14190-094) and detached using Versene (Invitrogen, Cat #15040-033). Subsequently, cells were counted and centrifuged at 250×g for 5 min at 4° C. Afterwards, cells were diluted in Superblock (Thermo Fisher Perbio Science, Cat #37515) to a cell concentration of 2E+05-1E+06/mL and 100 μL/well were transferred to 96-well microtiter plate (Nunc, Cat#163320). Cells were once centrifuged, supernatant discarded and antibodies added at 1 μg/mL (unless stated otherwise), incubated for 1 h at 4° C. and washed twice with FACS buffer (PBS/3% FCS/0.02% NaN3). Binding of anti-CXCR2 antibodies was detected by incubation of Phycoerythrin-conjugated anti-human IgG (Dianova, Cat #109-116-097) for 1 h at 4° C. Samples were subsequently measured using FACS Array (Becton Dickinson).

[2] = target: T2, N-terminal peptide aa1-48, BSA-coupled (human; bovine, coupled to carrier protein BSA; C-terminal cysteine introduced to enable coupling); test: ELISA, coated peptide-BSA, IgG1
T2 construct: also called CXCR2 aa1-48 BSA
Experimental: (§2) 384-well Maxisorp plates (Nunc; Cat. #460518) were coated with respective CXCR2 and control peptides coupled either to BSA or Transferrin (TRF) at 1-5 μg/mL and incubated o/n at 4° C. […] After three washing steps, antibodies were added at 5-10 μg/mL and titrated in some experiments. Antibodies were incubated 1 h at room temperature and plates were subsequently washed. Binding of anti-CXCR2 antibodies was detected by using alkaline phosphatase-conjugated anti-human IgG, (Dianova, Cat #109-055-097). AttoPhos fluorescence substrate (Roche, Cat #1484281) was added according to instructions of the manufacturer and fluorescence was measured (excitation at 430 nm, emission at 535 nm) using a microplate reader.

[3] = target: T3, ECL3 peptide aa273-295, BSA-coupled (human; bovine, coupled to carrier protein BSA; C-terminal cysteine introduced to enable coupling); test: ELISA, coated peptide-BSA, IgG1
T3 construct: also called CXCR2 aa273-295 BSA; peptides representing the extracellular domain 3
Experimental: as §2

[4] = target: T4, hu_CXCR2_N-term (1-17)-BSA (human; bovine, coupled to carrier protein BSA; C-terminal cysteine introduced to enable coupling); test: ELISA, coated peptide-BSA, IgG1
T4 construct: Synthetic linear peptide chemically coupled to the carrier; also called CXCR2_aa1-17_BSA; CXCR2 aa1-17 BSA
Experimental: as §2

[5] = target: T2, N-terminal peptide aa1-48, BSA-coupled; test: ELISA, coated peptide-BSA, IgG
Experimental: as §2

[6] = target: T3, ECL3 peptide aa273-295, BSA-coupled; test: ELISA, coated peptide-BSA, IgG
Experimental: as §2

[7] = target: T4, hu_CXCR2_N-term (1-17)-BSA; test: ELISA, coated peptide-BSA, IgG
Experimental: as §2

human CXCR2 [8] = target: T1, human CXCR2; test: FACS, CXCR2 CHO Flp-In cells, IgG
Experimental: as §1

T2 sequence (P02769 25-607 limits assumed): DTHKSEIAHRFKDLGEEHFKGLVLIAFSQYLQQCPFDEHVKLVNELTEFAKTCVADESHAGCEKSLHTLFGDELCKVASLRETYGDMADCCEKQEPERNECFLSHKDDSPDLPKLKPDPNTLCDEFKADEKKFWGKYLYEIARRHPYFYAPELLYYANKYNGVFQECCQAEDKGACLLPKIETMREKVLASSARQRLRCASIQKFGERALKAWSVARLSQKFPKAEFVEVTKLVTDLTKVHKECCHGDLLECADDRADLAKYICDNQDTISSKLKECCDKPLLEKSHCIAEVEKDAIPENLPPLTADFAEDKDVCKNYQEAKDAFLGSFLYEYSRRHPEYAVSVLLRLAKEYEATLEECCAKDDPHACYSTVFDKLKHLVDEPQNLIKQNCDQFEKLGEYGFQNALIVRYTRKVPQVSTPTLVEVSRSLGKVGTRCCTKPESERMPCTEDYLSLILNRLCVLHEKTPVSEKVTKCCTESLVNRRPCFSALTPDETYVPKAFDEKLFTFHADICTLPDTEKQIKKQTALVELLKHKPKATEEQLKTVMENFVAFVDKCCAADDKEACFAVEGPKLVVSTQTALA
T4 sequence (P02769 25-607 limits assumed): as above
T3 sequence (peptide, as listed by the source limits assumed, chain 1 of 2): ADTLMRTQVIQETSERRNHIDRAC
T3 sequence (P02769 25-607 limits assumed, chain 2 of 2): as the sequence (P02769 25-607 limits assumed) above

binding result (human CXCR2 [1]): binds
binding result [2]: binds
binding result [3]: binds
binding result [4]: binds
B1: CX2-Mab #1.2 (antibody, IgG1, V domains shown)
VH: QVQLVQSGAEVKKPGSSVKVSCKASGGTFSSYAISWVRQAPGQGLEWMGGIIPIVGEAKYAQKFQGRVTITADESTSTAYMELSSLRSEDTAVYYCARDSSGYDGYYAFAYWGQGTQVTVSS
VL: DIVLTQPPSVSGAPGQRGTISCSGSSSNIGSSSVNWYQQLPGTAPKLLIYRNNQRPSGVPDRFSGSKSGTSASLAITGLQAEDEADYYCATADQRGIVFGGGTKLTVLG

binding result [5]: binds
binding result [6]: binds
binding result [7]: binds
binding result (human CXCR2 [8]): binds
B2: CX2-Mab #7 (antibody, IgG1, V domains shown)
VH: QVQLLESGGGLVQPGGSLRLSCAASGFTFSRYWMSWVRQAPGKGLEWVSVISYSGSETYYADSVKGRFTISRDNSKNTLYLQMNSLRAEDTAVYYCARGRAYGYFDPWGQGTLVTVSS
VL: DIVLTQPPSVSGAPGQRVTISCSGSSSNIGKKTVSWYQQLPGTAPKLLIYRNNQRPSGVPDRFSGSKSGTSASLAITGLQAEDEADYYCQSTDSTTEIVFGGGTKLTVLG

binding result [5]: binds
binding result [6]: binds
binding result [7]: binds
binding result (human CXCR2 [8]): binds
B3: CX2-Mab #8 (antibody, IgG1, V domains shown)
VH: QVQLVQSGAEVKKPGESLKISCKGSGYSFTNYWIAWVRQMPGKGLEWMGIIDPSNSDTRYSPSFQGQVTISADKSISTAYLQWSSLKASDTAMYYCARGRYYGFFDYWGQGTLVTVSS
VL: DIVLTQPPSVSGAPGQRVTISCSGSSSNIGSTYVSWYQQLPGTAPKLLIYRNNNRPSGVPDRFSGSKSGTSASLAITGLQAEDEADYYCQVRALGTSSVVFGGGTKLTVLG
